Positions count from the first letter of the chain named. “And” between values parts separate entries of the source, which are not always exact repeats. Equal entries are not always repeated.
Tests used:
[1] = target: T1, human EGFRvIII (cell surface) (human, UniProt P00533 25-1210); test: FACS on EGFRvIII transfected cells, anti-c-Myc-biotin and streptavidin-PE
T1 construct: whole, on cells; also called hEGFRIII; EGFR variant III

[2] = target: T2, human EGFR (cell surface) (human, UniProt P00533 25-1210); test: FACS competition, competitor W5626-2C2-z22; upper panel 'Binning with W5626-2C2-z22'; cells not named on the sheet, A431 in the example
T2 construct: whole, on cells; also called W562-CHO-K1.hPro1.E9 cells; A431 cells

[3] = target: T2, human EGFR (cell surface); test: FACS competition, competitor W5626-2C10-z5; lower panel 'Binning with W5626-2C10-z5'; cells not named on the sheet, A431 in the example
[4] = target: T3, Macaca fascicularis EGFR (cell surface) (Macaca fascicularis, UniProt A0A2K5WK39 25-1210); test: FACS on cells expressing monkey EGFR
T3 construct: whole, on cells; also called monkey EGFR; cyno EGFR
Procedure: (§1) The binding of antibodies to cell surface EGFR was assessed by FACS with EGFR transfected cells and A431 cell line, which over expresses human EGFR. 1×10⁵ cells/well were plated in a 96-well plate and centrifuged at 210 g for 5 minutes at 4° C. After removing the supernatant, the cell pellets were re-suspended with serial dilutions of testing purified antibodies in 1% BSA-PBS and incubated for 1 hour at 4° C., followed by incubation with FITC conjugated goat anti-human IgG (Jackson ImmunoResearch) at 4° C. for 1 hour. Two times of washing with 200 μl/well 1% BSA-PBS were applied between each step. Finally, the cells were resuspended in 100 μl 1% BSA-PBS for flow cytometry analysis (Intellicyt).

[5] = target: T4, mouse EGFR (cell surface) (mouse, UniProt Q01279 25-1210); test: FACS on cells expressing mouse EGFR
T4 construct: whole, on cells; also called W562-CHO-K1.mProl.F3 cells
Procedure: as §1

[6] = target: T5, human EGFR ECD protein (W562-hPro1.ECD.his) (human, UniProt P00533 25-645); test: SPR (ProteOn XPR36), antibody captured by anti-human IgG Fc, EGFR ECD.his as analyte
T5 construct: extracellular domain; Made in HEK293 cells
Procedure: Each antibody was captured on an anti-human IgG Fc antibody immobilized GLM sensor chip (Bio-Rad). W562-hPro1.ECD.his at different concentrations was injected over the sensor chip at a flow rate of 100 uL/min for an association phase of 240 s, followed by 1800 s dissociation. The chip was regenerated by 10 mM glycine (pH 1.5) after each binding cycle. The sensorgrams of blank surface and buffer channel were subtracted from the test sensorgrams. The experimental data was fitted by 1:1 binding model using Langmiur analysis. Molecular weight of 85 kDa was used to calculate the molar concentration of analyte.

[7] = target: T2, human EGFR (cell surface); test: FACS on cells carrying human EGFR
Procedure: as §1

[8] = target: T2, human EGFR (cell surface); test: cell-based or functional assay
[9] = target: T1, human EGFRvIII (cell surface); test: FACS affinity on transfected cells, quantitative beads
Procedure: (§2) Human, cyno, mouse EGFR and human EGFRvIII transfected cells were transferred in to 96-well U-bottom plates (BD) at a density of 5×10⁴ cells/well, respectively. Testing antibodies were 1:3.16-fold serially diluted in 1% BSA-PBS and incubated with the cells at 4° C. for 1 hr. The secondary antibody, Alexa647 conjugated goat anti-human IgG Fc (Jackson Immunoresearch Lab), was added to resuspended cells and incubated at 4° C. in the dark for 1 hr. The cells were then washed once and resuspended in PBS with 1% BSA, and analyzed by flow cytometery (BD). Fluorescence intensity was converted to bound molecules/cell based on the quantitative beads (Quantum™ MESF Kits, Bangs Laboratories). KD was calculated using Graphpad Prism5.

[10] = target: T4, mouse EGFR (cell surface); test: as above
Procedure: as §2

[11] = target: T2, human EGFR (cell surface); test: as above
Procedure: as §2

[12] = target: T3, Macaca fascicularis EGFR (cell surface); test: as above
Procedure: as §2

[13] = target: T2, human EGFR (cell surface); test: FACS competition with EGF-biotin (50 ng/ml) on A431 cells
Procedure: EGFR-expressing A431 cells were routinely maintained in DMEM containing 10% FBS, 10 mM HEPES and L-glutamine. 10⁵ cells per well were added to each well of a 96-well plate and centrifuged at 210 g for 5 minutes at 4° C. before the supernatant was removed. Serial dilutions of test antibodies were added to the pelleted cells and incubated for 1 hour at 4° C. […] MFI of the cells was measured by flow cytometry and analyzed by FlowJo.

[14] = target: T2, human EGFR (cell surface); test: FACS binding to A431 cells (printed 'A432' in paragraph 253) after 0, 1, 4, 7 and 14 days in human serum at 37 C; upper panel
Procedure: Freshly collected human blood was incubated in polystyrene tubes without anticoagulant for 30 minutes at room temperature. The Serum was collected after centrifugation the blood at 4000 rpm for 10 minutes. Repeat the centrifugation until the serum was clarifying. Gently mix antibodies with serum and ensure the serum content >95%. The mix aliquots were incubated at 37° C. for 0 day, 1 day, 4 days, 7 days and 14 days, respectively. At the indicated time point the samples were quickly-frozen in liquid nitrogen and stored at −80° C. until analysis. The cell bindings of the serial dilutions of the antibody samples to A432 cells were analyzed by FACS. Four-parameter non-linear regression analysis was used to obtain EC₅₀ values for cell binding using GraphPad Prism 5 software (GraphPad Software, La Jolla, Calif.).

4-1BB.his [15] = target: T6, 4-1BB.his (Homo sapiens (Human), UniProt Q07011 24-186); test: ELISA, antigen coated at 2 µg/mL, anti-cMyc-HRP detection
T6 sequence (Q07011 24-186 limits assumed): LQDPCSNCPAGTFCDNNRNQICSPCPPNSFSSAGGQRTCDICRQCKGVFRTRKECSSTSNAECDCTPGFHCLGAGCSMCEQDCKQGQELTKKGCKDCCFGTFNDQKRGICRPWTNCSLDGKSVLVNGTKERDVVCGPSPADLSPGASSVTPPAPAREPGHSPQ
Procedure: (§3) Non-specific binding ELISA was performed in 96-well high binding plates (Nunc-Immuno Plate, Thermo Scientific). The plate was coated with various antigens at 2 μg/mL overnight at 4° C. […] The plates were subsequently incubated with the secondary antibody Goat anti-cMyc-HRP (Bethyl) for additional 1 hour. The HRP signal was detected by adding TMB substrate and the reaction was stopped after 12 minutes using 2M HCl. The absorbance at 450 nm was read using a microplate reader (Molecular Device). All incubation steps were performed at room temperature. The plate was washed with PBST (0.05% Tween20-PBS) between each step.

HER3.his [16] = target: T7, HER3.his (Homo sapiens (Human), UniProt P21860 20-643); test: as above
Procedure: as §3

HSA [17] = target: T8, HSA (UniProt P02768 25-609); test: as above
Procedure: as §3

CD3.his = test: non-specific binding ELISA, 10 µg/ml VHH on coated antigen
Procedure: as §3

OX40.his = test: as above
Chain of OX40.his (P43489 29-214): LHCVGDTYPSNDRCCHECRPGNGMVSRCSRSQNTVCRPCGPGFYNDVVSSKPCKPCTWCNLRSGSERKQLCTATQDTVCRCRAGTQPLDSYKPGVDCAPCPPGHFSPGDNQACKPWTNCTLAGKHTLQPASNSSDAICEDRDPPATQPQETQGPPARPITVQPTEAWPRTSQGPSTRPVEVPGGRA
Procedure: as §3

VEGF.his = test: as above
Procedure: as §3

Factor Eight = test: as above
Procedure: as §3

CD22.his = test: as above
Procedure: as §3

4-1BB.his [18] = target: T6, 4-1BB.his; test: as above
Procedure: as §3

FGFR.his = test: as above
Procedure: as §3

CD147 = test: as above
Procedure: as §3

PD-1.his = test: as above
Chain of PD-1.his (Q15116 25-170): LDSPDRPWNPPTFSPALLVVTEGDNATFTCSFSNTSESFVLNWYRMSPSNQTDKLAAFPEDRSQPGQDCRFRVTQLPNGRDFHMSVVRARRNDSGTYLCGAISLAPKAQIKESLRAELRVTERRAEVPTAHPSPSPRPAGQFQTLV
Procedure: as §3

HER3.his [19] = target: T7, HER3.his; test: as above
Procedure: as §3

CTLA4.his = test: as above
Chain of CTLA4.his (P16410 36-161): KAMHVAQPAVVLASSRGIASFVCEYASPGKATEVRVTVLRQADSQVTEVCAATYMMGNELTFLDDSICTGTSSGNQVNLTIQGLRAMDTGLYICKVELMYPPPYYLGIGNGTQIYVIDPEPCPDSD
Procedure: as §3

HSA [20] = target: T8, HSA; test: as above
Procedure: as §3

CD40 = test: as above
Chain of CD40 (P25942 21-193): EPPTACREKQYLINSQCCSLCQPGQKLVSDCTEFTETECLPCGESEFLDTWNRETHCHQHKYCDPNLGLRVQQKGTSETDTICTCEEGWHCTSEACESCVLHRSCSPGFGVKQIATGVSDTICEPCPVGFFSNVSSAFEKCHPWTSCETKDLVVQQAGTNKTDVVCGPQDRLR
Procedure: as §3

W317-hPro1.ECD.his = test: as above
Procedure: as §3

B1: W5626-2C10.VHH (VHH)
VHH: AVQLVESGGGLVQAGGSLTLSCAASGRTFSSYAMGWFRQAPGKEREFVAADRWSGGNTRYADSVKGRFTISRDNAKNTVYLQMNSLKPEDTAVYYCAATYLSSDYEWGVPPKAYDYDYWGQGTQVTVSS
notes: c-Myc and his-tagged VHH fragment made in E. coli BL21; not shown: 6-his and c-Myc tags fused at the C-terminus
- EC50 [1]: 1.08 nM
- IC50 (read off the curve) [2]: ~1 nM
- IC50 (read off the curve) [3]: ~1 nM

B2: W5626-2C2.VHH (VHH)
VHH: EVQLVESGGGLVQAGDSLRLSCAASGRTHSNYVMGWFRQAPGQEREFVAGISRTYGNTYYRDSVEGRFTISVDNPKNTVYLQMNSLKPEDTAVYYCAADPTRSEVILTTSHRYVYWGQGTLVTVSS
notes: as for B1
- EC50 [1]: 2.41 nM
- IC50 (read off the curve) [2]: ~2 nM
- IC50 (read off the curve) [3]: ~1 nM

B3: W5626-2C2-z22 (humanized VHH of W5626-2C2 further comprising a human Fc of IgG1 isotype) (Fc fusion)
chain: B2 VHH with A14P, D16G, V72R, P75S, V79L, K87R, P88A
notes: Bivalent humanized VHH linked with human IgG1 Fc region; not shown: human IgG1 Fc region from a modified pcDNA3.3 vector
- EC50 [4]: 0.25 nM
- EC50 [5]: 0.65 nM
- Kd [6]: 3.22 nM
- koff [6]: 0.00209 s⁻¹
- kon [6]: 649000 M⁻¹ s⁻¹
- EC50 [7]: 0.83 nM
- EC50 of EGFR internalization (Fab-ZAP, viability of A431 cells) [8]: 0.17 nM
- IC50 of inhibition of EGFR phosphorylation (pEGFR sandwich ELISA, A431 cells stimulated with EGF) [8]: 22.6 nM and 10.4 nM
- Bmax [9]: 530 pM
- Kd [9]: 0.24 nM
- Bmax [10]: 1 nM
- Kd [10]: 0.51 nM
- Bmax [11]: 860 pM
- Kd [11]: 1.1 nM
- Bmax [12]: 230 pM
- Kd [12]: 0.26 nM
- IC50 [13]: 1.35 nM
- EC50 (read off the curve) [14]: ~0.9 nM

B4: W5626-2C2-z22 (VHH) (VHH)
VHH: B2 VHH with A14P, D16G, V72R, P75S, V79L, K87R, P88A
notes: also called c-Myc and his-tagged VHH fragment of W5626-2C2-z22; not shown: c-Myc and his tags
- binding result (4-1BB.his [15]): no binding (tested: 10 µg/ml)
- binding result (HER3.his [16]): no binding (tested: 10 µg/ml)
- binding result (HSA [17]): no binding (tested: 10 µg/ml)
- OD A450 (CD3.his): 0.06 OD A450
- OD A450 (OX40.his): 0.05 OD A450
- OD A450 (VEGF.his): 0.07 OD A450
- OD A450 (Factor Eight): 0.05 OD A450
- OD A450 (CD22.his): 0.06 OD A450
- OD A450 (4-1BB.his [18]): 0.06 OD A450
- OD A450 (FGFR.his): 0.05 OD A450
- OD A450 (CD147): 0.06 OD A450
- OD A450 (PD-1.his): 0.06 OD A450
- OD A450 (HER3.his [19]): 0.06 OD A450
- OD A450 (CTLA4.his): 0.07 OD A450
- OD A450 (HSA [20]): 0.07 OD A450
- OD A450 (CD40): 0.06 OD A450
- OD A450 (W317-hPro1.ECD.his): 0.07 OD A450

B5: W5626-2C10-z5 (VHH) (VHH)
VHH: B1 VHH with A14P, V79L, K87R, P88A, Q124L
notes: also called c-Myc and his-tagged VHH fragment of W5626-2C10-z5; not shown: c-Myc and his tags
- binding result (4-1BB.his [15]): no binding (tested: 10 µg/ml)
- binding result (HER3.his [16]): no binding (tested: 10 µg/ml)
- binding result (HSA [17]): no binding (tested: 10 µg/ml)
- OD A450 (CD3.his): 0.04 OD A450
- OD A450 (OX40.his): 0.04 OD A450
- OD A450 (VEGF.his): 0.05 OD A450
- OD A450 (Factor Eight): 0.04 OD A450
- OD A450 (CD22.his): 0.05 OD A450
- OD A450 (4-1BB.his [18]): 0.05 OD A450
- OD A450 (FGFR.his): 0.05 OD A450
- OD A450 (CD147): 0.04 OD A450
- OD A450 (PD-1.his): 0.04 OD A450
- OD A450 (HER3.his [19]): 0.04 OD A450
- OD A450 (CTLA4.his): 0.04 OD A450
- OD A450 (HSA [20]): 0.05 OD A450
- OD A450 (CD40): 0.05 OD A450
- OD A450 (W317-hPro1.ECD.his): 0.05 OD A450

Reference: patent US20210115146A1 (WUXI BIOLOGICS IRELAND, published 2021)
